Results: PMC5531588, “Staphylococcus aureus single-stranded DNA-binding protein SsbA can bind but cannot stimulate PriA helicase”

Experiments:
[1] = target: Staphylococcus aureus single-stranded DNA-binding protein SsbA (S. aureus subsp. aureus ED98); experiment: SEC; purified SaSsbA (2 mg/mL) on Superdex 200 prep grade in Buffer B (20 mM HEPES, 100 mM NaCl, pH 7.0), calibrated with proteins of known molecular weight
[2] = target: Staphylococcus aureus PriA helicase (S. aureus); experiment: SPR; SaPriA immobilised on CM5 chip, Biacore T200, 293 K, 40 mM Tris, 200 mM NaCl, 0.05% Tween-20, pH 8.0; analyte injected 120 s at 30 uL/min; 1:1 (Langmuir) model
[3] = target: SaSsbA (Staphylococcus aureus subsp. aureus ED98, UniProt A0A0D1JHQ1 1-167); experiment: EMSA; 100 mM NaCl; EMSA: 20 mM Tris-HCl pH 8.0, 100 mM NaCl (or 0.4 M NaCl), 1.7 nM DNA, 25 C, 30 min; native 8% PAGE in TBE at 4 C; settings: protein: recombinant; chain copies: 4; label: 32P (5' end, T4 PNK); single strand

Staphylococcus aureus single-stranded DNA-binding protein SsbA (natural protein)
stoichiometry N [1]: 4 | Kd [2]: 46 nM

TTTTTTTTTTTTTTTTTTTT (ssDNA) [dT20]
apparent K (half saturation) [3]: 292 ± 28 nM

TTTTTTTTTTTTTTTTTTTTTTTTTTTTTT (ssDNA) [dT30]
apparent K (half saturation) [3]: 186 ± 20 nM

TTTTTTTTTTTTTTTTTTTTTTTTTTTTTTTTTTTTTTTT (ssDNA) [dT40]
apparent K (half saturation) [3]: 90 ± 5 nM
